Assay [1] deals with UvrAB complex formed beforehand on DNA tightropes (Bacillus caldotenax) (UniProt P56981). The assay is described as follows: single-molecule fluorescence colocalisation on DNA tightropes (three colours); UvrA, UvrB and UvrC (1:1:0.5 nM) labelled with different Qdots (565, 605, 655 nm), incubated together, then added to undamaged λ-DNA tightropes; room temperature; ABC buffer (50 mM Tris-HCl pH 7.5, 50 mM KCl, 1 mM ATP, 10 mM MgCl2, 10 mM DTT).

For assay [2] the target is unchanged. The assay can be described thus: single-molecule fluorescence colocalisation on DNA tightropes (two colours); UvrAB complexes first formed on undamaged DNA tightropes with the Qdot on UvrB (unlabelled, non-biotinylated UvrA) or on UvrA; streptavidin-Qdot-labelled biotin-UvrC of another colour then added; dual-coloured complexes counted; room temperature; ABC buffer.

In assay [3] the target is UvrA (Bacillus caldotenax) (Bacillus caldotenax). The assay is described as follows: single-molecule fluorescence colocalisation on DNA tightropes (three colours); UvrA, UvrB and UvrC (1:1:0.5 nM) labelled with different Qdots (565, 605, 655 nm), incubated together, then added to undamaged λ-DNA tightropes; room temperature; ABC buffer (50 mM Tris-HCl pH 7.5, 50 mM KCl, 1 mM ATP, 10 mM MgCl2, 10 mM DTT).

In assay [4] the target is UvrC (Bacillus caldotenax) (Bacillus caldotenax). The description is as above.

Take “UvrC (Bacillus caldotenax) (natural protein)”: the occurrence of the triple-coloured complex among DNA-bound Qdots in assay [1] turned out to be 1.6%. The occurrence of the dual-colour complex among DNA-bound Qdots in assay [2] amounted to 16.6%.

B1: UvrB (Bacillus caldotenax) (natural protein)
chain: MVEGRFQLVAPYEPQGDQPQAIAKLVDGLRRGVKHQTLLGATGTGKTFTISNVIAQVNKPTLVIAHNKTLAGQLYSELKEFFPHNAVEYFVSYYDYYQPEAYVPQTDTYIEKDAKINDEIDKLRHSATSALFERRDVIIVASVSCIYGLGSPEEYRELVVSLRVGMEIERNALLRRLVDIQYDRNDIDFRGTFRVRGDVVEIFPASRDEHCIRVEFFGDEIERIREVDALTGKVLGEREHVAIFPASHFVTREEKMRLAIQNIEQELEERLAELRAQGKLLEAQRLEQRTRYDLEMMREMGFCSGIENYSRHLALRPPGSTPYTLLDYFPDDFLIIVDESHVTLPQLRGMYNGDRARKQVLVDHGFRLPSALDNRPLTFEEFEQKINQIIYVSATPGPYELEHSPGVVEQIIRPTGLLDPTIDVRPTKGQIDDLIGEIRERVERNERTLVTTLTKKMAEDLTDYLKEAGIKVAYLHSEIKTLERIEIIRDLRLGKYDVLVGINLLREGLDIPEVSLVAILDADKEGFLRSERSLIQTIGRAARNANGHVIMYADTITKSMEIAIQETKRRRAIQEEYNRKHGIVPRTVKKEIRDVIRATYAAEETEMYEAKPAAAMTKQEREELIRTLEAEMKEAAKALDFERAAQLRDIIFELKAEG
Consider B1, for which the results for the occurrence of the complex among DNA-bound Qdots in assay [3] and in assay [4] were 6.7% and 1.6%, respectively.

The values above are taken from publication PMC5814901.
